# Assay results published in US7851592B2, “Compositions and methods for inhibiting G2 cell cycle arrest and sensitizing cells to DNA damaging agents” (CanBas Co. Ltd., priority 1999, dated 2010).
# System: histone H1 kinase activity
# Assay: Histone H1 kinase assay on lysates of treated Jurkat cells
# Type: cell-based, human
# Settings: FIG. 2B; bleomycin 10 μg/ml or hydroxyurea 100 μg/ml; 6 hr
# Procedure: Histone H1 kinase assay. Ten million Jurkat cells were treated with hydroxyurea (100 μg/ml), bleomycin (10 μg/ml), or colchicine (5 μg/ml) with or without addition of TAT-S216A, TAT-S216 or TAT-Control (10 μM) for 6 hr. The cells were washed in cold PBS and lysed at 4° C. in 1 ml of buffer A (50 mM Tris pH 8, 2 mM DTT, 5 mM EDTA, 100 mM NaCl, 0.5% NP40, 20 mM Na3V04, 50 mM NaF, 4 μM Okadaic acid, 5 μg/ml aprotinin, 5 μg/ml pepstatin A and 5 μg/ml leupeptin.). Twenty microliter of p13^suc1 agarose beads (Upstate Biotechnology., Saranac, N.Y.) were added to the cleared lysates, incubated for 4 hr at 4° C., and washed five times with buffer A without 5 mM EDTA, 20 mM Na3V04, 50 mM NaF, 4 μM Okadaic acid. Histone HI kinase activity on the beads were analyzed by using Cdc2 kinase assay kit (Upstate Biotechnology) with [γ-^32P] ATP, followed by 12% SDS-PAGE electrophoresis, and autoradiographed to detect the phosphorylated Histone H1.
# The cell cycle status of the cells treated with TAT-S216A or TAT-S216 upon the DNA damage-induced G2 arrest was analyzed by FACS analysis. Histone H1 kinase activities of theses cells were simultaneously monitored. […] Results are shown in FIG. 2: abrogation of DNA damage-induced G2 arrest by TAT-S216A and TAT-S216 peptides. FIG. 2A, FACS analysis of Jurkat cells treated with bleomycin and peptides. Cells were treated with bleomycin (10 μg/ml) with or without peptides (10 μM) for 20 hr. B, histone H1 kinase analysis. Cell lysates were prepared from the cells treated with the indicated reagent for 6 hr. Concentrations used were: hydroxyurea (HU), 100 μg/ml; bleomycin (Bleo), 10 μg/ml; colchicine, 5 μg/ml; TAT-S216A and TAT-S216, 10 μM. C, FACS analysis of colchicine -and peptide-treated cells. Jurkat cells were treated with colchicine (5 μg/ml) with or without peptide (10 μM) for 20 hr.
row,Compound,histone H1 kinase activity on treatment with drug alone
1,"NC(=O)NO [hydroxyurea, Hydroxyurea]",decreased

# Target: human Chk2 kinase (Homo sapiens, UniProt O96017)
# Sequence (O96017 whole entry): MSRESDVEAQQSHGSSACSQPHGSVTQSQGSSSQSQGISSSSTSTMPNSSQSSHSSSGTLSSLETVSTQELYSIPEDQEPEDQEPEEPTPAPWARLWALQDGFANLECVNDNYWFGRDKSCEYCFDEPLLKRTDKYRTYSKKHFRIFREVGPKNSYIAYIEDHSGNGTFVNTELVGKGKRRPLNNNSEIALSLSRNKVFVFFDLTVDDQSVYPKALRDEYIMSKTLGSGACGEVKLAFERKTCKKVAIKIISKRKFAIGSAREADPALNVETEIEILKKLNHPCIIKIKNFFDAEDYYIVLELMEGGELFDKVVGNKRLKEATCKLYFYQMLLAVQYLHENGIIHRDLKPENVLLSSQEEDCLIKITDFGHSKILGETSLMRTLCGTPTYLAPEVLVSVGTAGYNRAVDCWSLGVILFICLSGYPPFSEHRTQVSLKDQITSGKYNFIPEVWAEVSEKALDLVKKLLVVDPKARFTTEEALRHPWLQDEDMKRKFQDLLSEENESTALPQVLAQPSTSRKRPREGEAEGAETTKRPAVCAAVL
# Assay: In vitro phosphorylation (kination) of membrane-immobilized peptides by human Chk2 kinase (Gst-Chk2)
# Type: biochemical
# Set-up: key to phosphorylation signal by human Chk2 kinase (graded) / in vitro phosphorylation by human Chk2 kinase (graded signal): a “+++” indicates the peptide was relatively highly phosphorylated; a “++” indicates the peptide was relatively less phosphorylated; a “+” indicates the peptide was detectably significantly phosphorylated over negative control; no indication indicates that a peptide was not significantly phosphorylated over negative control
# Settings: peptide on membrane; Gst-Chk2
# Procedure: Exemplary peptides were directly synthesized (immobilized) on a membrane and contacted with human Chk2 kinase. Specifically, oligo-peptides with all sequences predicted by the 3-dimensional model were directly synthesized on a membrane by using an auto-spot-peptide-synthesizer, Model ASP-22 2 (ABiMED, Germany). The amount of peptide was about 0.1 micro-mol/cm^2.
# The membrane was incubated with 2% Gly-Gly in PBS for 2 hours (hr) at room temperature (RT). Then, they were washed three times with 0.1% Tween-P BS™. The “kination,” or “phosphorylation,” reaction was performed with a recombinant fusion protein Gst-Chk2 at a concentration of about 5 μg in 4 ml reaction buffer, 1 mM MgCl2, 2% Gly-Gly and γ-^33P-ATP in PBS at RT for 1 hr. After the reaction, the membrane was washed 5 times with RIPA (1% SDS, 1% NP-40, 100 mM NaCl) and analyzed with a Bass 2500™ image analyzer (Fuji, Japan).
# The following Table 1 is a complete list of tested peptides and results of the in vitro phosphorylation by human Chk2 kinase assay.
# The following example describes studies which identified exemplary G2 checkpoint-abrogating peptides of the invention. The following peptides of the invention were synthesized directly on membranes and tested in in vitro phosphorylation (“kination” assays, as described above.
# These peptides were tested in in vitro kination reactions. The oligopeptides were used as phosphorylation substrates; added kinases are involved in the cell cycle G2 checkpoint. Thus, a substance that inhibits the kination reaction can be a cell cycle 62 checkpoint abrogator. For the detection of the phosphorylation status of substrates in this screening method, isotope-labeled ATP and anti-phospho-peptides antibody can be used.
row,phosphorylation by human Chk2 kinase (in words),Compound
1,best phosphorylation substrates,L Y R S P S Y Y E N L (LYRSPSYYENL)
2,best phosphorylation substrates,W Y T S P S Y F E N L (WYTSPSYFENL)

# Same assay, conditions: peptide on membrane; Gst-Chk2; γ-33P-ATP; RT 1 hr
row,phosphorylation signal by human Chk2 kinase (graded),Compound
1,+,RYSLPPELSNM
2,+,LYRSPSAMPENL

# Same assay, conditions: peptide synthesized on membrane (about 0.1 micro-mol/cm^2); Gst-Chk2 about 5 μg in 4 ml reaction buffer, γ-33P-ATP, RT 1 hr; image analyzer signal graded −, +, ++, +++
row,Compound,in vitro phosphorylation by human Chk2 kinase (graded signal)
1,LYTSPSNWENL,+
2,LYSSPSMPENL,+
3,LYSSPSHPENL,++
4,LYTSPSFPENL,++
5,LYHSPSYYENL,+++
6,LYSSPSHFENL,++
7,LYRSPSMPENL,+
8,LYHSPSYWENL,+
9,LYSSPSHYENL,++
10,LYRSPSHPENL,+
11,LYTSPSMFENL,++
12,LYSSPSMYENL,+
13,LYTSPSFWENL,++
14,RYSLPPELSNM,+
15,LYSSPSHWENL,++
16,LFTSPSYFENL,+
17,LYTSPSMPENL,++
18,LYSSPSFYENL,+
19,LYSSPSMFENL,+
20,LYHSPSYPENL,+
21,LYTSPSYPENL,++
22,LYRSPSYYENL,+
23,LYRSPSNWENL,+
24,LYSSPSQPENL,+
25,LYRSPSHFENL,+
26,LYTSPSMWENL,++
27,LFTSPSYYENL,+++
28,LYSSPSFPENL,+
29,LYTSPSHYENL,+
30,LYSSPSYWENL,+

# More lines, now with the values ahead:
row,in vitro phosphorylation by human Chk2 kinase (graded signal),Compound
1,++,LYTSPSYWENL
2,+,LFTSPSYPENL
3,+,LYTSPSNYENL
4,+,LYTSPSNPENL
5,+,LYSSPSYFENL
6,++,LYTSPSFFENL
7,+,LYHSPSYFENL
8,++,LYTSPSFYENL
9,+,LYRSPSNYENL
10,+,LYRSPSHYENL
11,+,LYSSPSYYENL
12,+,LYTSPSHPENL
13,+,LYSSPSYPENL
14,+,LYTSPSHWENL
15,+,LYSSPSMWENL
16,+,LFTSPSYWENL
17,+,LYSSPSQWENL
18,+,LYTSPSNFENL
19,+,LYSSPSFFENL
20,+,LYTSPSHFENL
21,++,LYTSPSMYENL
22,+,LYSSPSFWENL
23,+,LYRSPSHWENL
24,+,LYRSPSYWENL
25,+,LYRSPSNPENL
26,+,LYRSPSYFENL
27,++,LYTSPSYFENL
28,+++,LYTSPSYYENL

# Same assay, conditions: peptide synthesized on membrane, about 0.1 micro-mol/cm^2; Gst-Chk2 about 5 μg in 4 ml, γ-33P-ATP, RT 1 hr; image analyzer signal graded −, +, ++, +++
row,Compound,in vitro phosphorylation by human Chk2 kinase (graded signal)
1,1129 (WYRSPSFYENL) [compound 1129],+++
2,1125 (WYRSPSMWENL) [compound 1125],++
3,1127 (WYRSPSFPENL) [compound 1127],++
4,1128 (WYRSPSFFENL) [compound 1128],++
5,1132 (WYRSPSYPENL) [compound 1132],++
6,1212 (WYTSPSYPENL) [compound 1212],++

# Next, values leading:
row,in vitro phosphorylation by human Chk2 kinase (graded signal),Compound
1,++,1134 (WYRSPSYYENL) [compound 1134]
2,++,1130 (WYRSPSFWENL) [compound 1130]
3,++,1124 (WYRSPSMYENL) [compound 1124]
